# From article PMC12840758
# Molecular target: T1, MtbCspB (cold shock protein CspB) (Mycobacterium tuberculosis H37Rv) (UniProt I6WZM9)
# T1 sequence: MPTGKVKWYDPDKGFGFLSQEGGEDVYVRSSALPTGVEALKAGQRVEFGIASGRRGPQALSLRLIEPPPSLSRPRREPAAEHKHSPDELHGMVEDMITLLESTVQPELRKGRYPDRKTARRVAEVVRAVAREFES
# Assay: SPR
# Conditions: […] (or 250 mM) NaCl, 10 mM MgCl2, 0.05% Tween-20, temperature not stated
row,Substance,Kd
1,GUGGUCAGUCGAGUGGUUUUUU [oligoU RNA],18.8 nM
2,"MTS0997 sRNA (Mcr11, ncRv1264Ac)",0.112 nM
3,"MTS1338 sRNA (DrrS, ncRv11733)",0.296 nM
